{"source": "patent US20110135636A1", "about": "(SYMPHOGEN A S, published 2011)", "binders": {"B1": {"name": "antibody 1347 (antibody, human IgG1, kappa, V domains shown)", "VH": "QVQLKESGPGLVAPSQSLSITCTVSGFSLTGHGVNWVRQPPGKGLEWLGMIWGDGSTDYNSTLKSRLSISKDNSKSQVFLKMNSLQTDDTARYYCARGYGYLYYFDYWGQGTTLTVSS", "VL": "ENVLTQSPAIMSASPGEKVTMTCRASSSVSSSYLHWYQQKSGASPKLWIYSTSNLASGVPARFSGSGSGTSYSLTVNSVETEDAATYYCHQYSGFPFTFGSGTKLELKR", "notes": "Chimeric IgG1 kappa"}}, "key": {"[1]": {"target": "T1, recombinant human EGFR extracellular domain with 6xHis (human, UniProt P00533 25-645)", "T1 construct": "In-house produced; also called 6xHis EGFR ECD; soluble human EGFR ECD; not shown: 6xHis tag", "test": "SPR competition, competitor Ab-1", "in_short": "(§1)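 Read-out: percent inhibition from Ru max of each anti-EGFR mAb with and without prior competitor binding, taken at report points 2 s before and after injection. His-tagged EGFR ECD was captured via anti-His antibody on a CM5 chip.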"}, "[2]": {"target": "T1, recombinant human EGFR extracellular …", "test": "SPR competition, competitor Ab-3", "in_short": "as §1"}, "[3]": {"target": "T1, recombinant human EGFR extracellular …", "test": "SPR competition, competitor Ab-5", "in_short": "as §1"}, "[4]": {"target": "T1, recombinant human EGFR extracellular …", "test": "SPR competition, competitor 1024", "in_short": "as §1"}, "[5]": {"target": "T1, recombinant human EGFR extracellular …", "test": "SPR competition, competitor 1208", "in_short": "as §1"}, "[6]": {"target": "T1, recombinant human EGFR extracellular …", "test": "SPR competition, competitor 1254", "in_short": "as §1"}, "[7]": {"target": "T1, recombinant human EGFR extracellular …", "test": "SPR competition, competitor 1257", "in_short": "as §1"}, "[8]": {"target": "T1, recombinant human EGFR extracellular …", "test": "SPR competition, competitor 1260", "in_short": "as §1"}, "[9]": {"target": "T1, recombinant human EGFR extracellular …", "test": "SPR competition, competitor 1261", "in_short": "as §1"}, "[10]": {"target": "T1, recombinant human EGFR extracellular …", "test": "SPR competition, competitor 1277", "in_short": "as §1"}, "[11]": {"target": "T1, recombinant human EGFR extracellular …", "test": "SPR competition, competitor 1284", "in_short": "as §1"}, "[12]": {"target": "T1, recombinant human EGFR extracellular …", "test": "SPR competition, competitor 1320", "in_short": "as §1"}, "[13]": {"target": "T1, recombinant human EGFR extracellular …", "test": "SPR competition, competitor 1344", "in_short": "as §1"}, "[14]": {"target": "T1, recombinant human EGFR extracellular …", "test": "SPR competition, competitor 1347", "in_short": "as §1"}, "[15]": {"target": "T1, recombinant human EGFR extracellular …", "test": "SPR competition, competitor Ab-10", "in_short": "as §1"}, "[16]": {"target": "T1, recombinant human EGFR extracellular …", "test": "SPR competition, competitor Ab-11", "in_short": "as §1"}, "[17]": {"target": "T1, recombinant human EGFR extracellular …", "test": "SPR competition, competitor ICR10", "in_short": "as §1"}, "[18]": {"target": "T1, recombinant human EGFR extracellular …", "test": "SPR competition, competitor Erbitux", "in_short": "as §1"}, "[19]": {"target": "T1, recombinant human EGFR extracellular …", "test": "SPR competition, competitor Erbitux", "in_short": "as §1", "remark": "listed apart in the source"}, "[20]": {"target": "T1, recombinant human EGFR extracellular …", "test": "SPR competition, competitor Vectibix", "in_short": "as §1"}, "[21]": {"target": "T1, recombinant human EGFR extracellular …", "test": "SPR competition, competitor 1030corr", "in_short": "as §1"}, "[22]": {"target": "T1, recombinant human EGFR extracellular …", "test": "SPR competition, competitor 992 corr", "in_short": "as §1"}, "[23]": {"target": "T1, recombinant human EGFR extracellular …", "test": "SPR competition, competitor Vectibix", "in_short": "as §1", "remark": "listed apart in the source"}}}
{"binder": "B1", "values": [{"measurement": "% inhibition", "setting": "[1]", "value": -3, "unit": "%"}, {"measurement": "% inhibition", "setting": "[2]", "value": 11, "unit": "%"}, {"measurement": "% inhibition", "setting": "[3]", "value": -1, "unit": "%"}, {"measurement": "% inhibition", "setting": "[4]", "value": 4, "unit": "%"}, {"measurement": "% inhibition", "setting": "[5]", "value": 0, "unit": "%"}, {"measurement": "% inhibition", "setting": "[6]", "value": 0, "unit": "%"}, {"measurement": "% inhibition", "setting": "[7]", "value": 19, "unit": "%"}, {"measurement": "% inhibition", "setting": "[8]", "value": 41, "unit": "%"}, {"measurement": "% inhibition", "setting": "[9]", "value": -23, "unit": "%"}, {"measurement": "% inhibition", "setting": "[10]", "value": 6, "unit": "%"}, {"measurement": "% inhibition", "setting": "[11]", "value": 61, "unit": "%"}, {"measurement": "% inhibition", "setting": "[12]", "value": 2, "unit": "%"}, {"measurement": "% inhibition", "setting": "[13]", "value": 38, "unit": "%"}, {"measurement": "% inhibition", "setting": "[14]", "value": 70, "unit": "%"}, {"measurement": "% inhibition", "setting": "[15]", "value": -1, "unit": "%"}, {"measurement": "% inhibition", "setting": "[16]", "value": 86, "unit": "%"}, {"measurement": "% inhibition", "setting": "[17]", "value": 17, "unit": "%"}, {"measurement": "% inhibition", "setting": "[18]", "value": -4, "unit": "%"}, {"measurement": "% inhibition", "setting": "[19]", "value": -4, "unit": "%"}, {"measurement": "% inhibition", "setting": "[20]", "value": -6, "unit": "%"}, {"measurement": "% inhibition", "setting": "[21]", "value": -2, "unit": "%"}, {"measurement": "% inhibition", "setting": "[22]", "value": 7, "unit": "%"}, {"measurement": "% inhibition", "setting": "[23]", "value": -5, "unit": "%"}]}
